Changes are numbered by the printed parent chain. Values belong to the binder of their own block, whether it stands above or below them.
Legend:
[1] = molecular target: T1, mouse AXL extracellular domain (Sino cat. 51026-M08H) (mouse, UniProt Q00993 19-445); test: ELISA on coated mouse AXL ECD (100 ng/well)
T1 construct: extracellular domain; Bought protein; also called mouse AXL ECD
T1 sequence (looked up): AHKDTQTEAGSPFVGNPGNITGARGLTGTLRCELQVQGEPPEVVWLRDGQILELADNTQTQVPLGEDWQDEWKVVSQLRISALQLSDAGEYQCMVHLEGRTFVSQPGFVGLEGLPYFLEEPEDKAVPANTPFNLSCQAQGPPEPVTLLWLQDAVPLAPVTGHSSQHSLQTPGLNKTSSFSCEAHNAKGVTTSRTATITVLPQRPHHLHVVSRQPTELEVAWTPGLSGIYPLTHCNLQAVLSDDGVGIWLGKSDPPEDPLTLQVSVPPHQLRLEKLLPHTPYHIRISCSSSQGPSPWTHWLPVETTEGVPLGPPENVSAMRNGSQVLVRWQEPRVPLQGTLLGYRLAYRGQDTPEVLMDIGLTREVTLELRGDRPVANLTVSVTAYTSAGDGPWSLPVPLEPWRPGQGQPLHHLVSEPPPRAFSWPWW
Experimental: (§1) ELISA. ELISAs against human, cyno and mouse AXL ECDs were conducted by immobilizing 100 ng of each protein in wells of Nunc MaxiSorp microplates overnight. Human AXL (aa 1-451) and cyno AXL (aa 1-449) were produced recombinantly as described in Example 10. Mouse AXL was purchased from Sino (cat. 51026-M08H). The next day, plates were blocked with 5% (w/v) dried milk in PBS. Murine mAbs (either hybridoma- or recombinantly-produced) or VHH-Fcs were diluted in PBS containing 1% BSA and 0.1% Tween-20 and added to wells for 2 hours at room temperature. Wells were washed 5× with PBS containing 0.1% Tween-20, then HRP-labeled protein A (diluted 1:1000 in PBS containing 1% BSA and 0.1% Tween™-20) was added to wells for 1 hour at room temperature. Wells were washed again 5× with PBS/0.1% Tween-20 and developed using TMB substrate. Absorbance was measured at 450 nm. As a positive control for mouse AXL binding, a commercial anti-mouse AXL mAb (clone 175128, R&D Systems MAB8541, rat IgG2A) was used and detected with donkey […] secondary antibody.

[2] = molecular target: T2, recombinant cynomolgus AXL extracellular domain (cynomolgus); test: SPR Biacore T200, mAb captured on anti-Fc, AXL ECD flowed, single-cycle kinetics
T2 construct: range 1-449; also called Cyno AXL; cyno AXL ECD
Experimental: (§2) Surface plasmon resonance. For murine mAbs, binding to human and cynomolgus AXL ECD was assessed using a Biacore T200 instrument. Briefly, either anti-mouse or anti-human Fc antibody was immobilized on a research-grade CM5 series S sensor chip using amine coupling in acetate buffer. Murine or recombinant chimeric murine-human mAbs (mouse VH/VL; human constant regions) were captured, then recombinant human or cyno AXL ECD was flowed over the surface at different concentration ranges (0.1-500 nM) depending on the antibody. The running buffer was PBS/Tween-20 and the flow rate 100 uL/min. All binding studies were performed at 25° C. Surfaces were regenerated using 10 mM glycine, pH 1.5.

[3] = molecular target: T3, recombinant human AXL extracellular domain, C-terminally His8-tagged (rhAXL-ECD) (human, UniProt P30530 26-451); test: as above
T3 construct: Made in CHO cells; also called (rh)AXL-ECD His8; human AXL ECD
T3 sequence: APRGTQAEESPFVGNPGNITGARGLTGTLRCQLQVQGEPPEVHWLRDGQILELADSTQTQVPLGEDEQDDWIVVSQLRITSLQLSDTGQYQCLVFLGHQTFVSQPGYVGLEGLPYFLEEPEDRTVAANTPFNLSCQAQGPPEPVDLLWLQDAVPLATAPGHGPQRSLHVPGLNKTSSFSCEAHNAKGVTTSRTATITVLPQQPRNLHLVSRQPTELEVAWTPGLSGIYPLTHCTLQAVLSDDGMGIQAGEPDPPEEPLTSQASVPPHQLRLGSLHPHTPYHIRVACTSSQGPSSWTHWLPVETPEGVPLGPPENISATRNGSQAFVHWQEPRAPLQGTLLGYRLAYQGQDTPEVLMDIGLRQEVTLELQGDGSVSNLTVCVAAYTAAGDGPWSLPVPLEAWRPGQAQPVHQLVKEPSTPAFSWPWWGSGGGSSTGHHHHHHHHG
Experimental: as §2

[4] = molecular target: T3, recombinant human AXL extracellular …; test: ELISA on coated AXL ECD (100 ng/well), HRP-protein A
Experimental: as §1

[5] = molecular target: T4, human AXL expressed on the cell surface of tumor cell lines (human, UniProt P30530 26-894); test: FACS on MDA-MB-231 luciferase cells, apparent Kd
T4 construct: whole, on cells; also called cell surface-expressed AXL; cell-based AXL
T4 sequence (looked up): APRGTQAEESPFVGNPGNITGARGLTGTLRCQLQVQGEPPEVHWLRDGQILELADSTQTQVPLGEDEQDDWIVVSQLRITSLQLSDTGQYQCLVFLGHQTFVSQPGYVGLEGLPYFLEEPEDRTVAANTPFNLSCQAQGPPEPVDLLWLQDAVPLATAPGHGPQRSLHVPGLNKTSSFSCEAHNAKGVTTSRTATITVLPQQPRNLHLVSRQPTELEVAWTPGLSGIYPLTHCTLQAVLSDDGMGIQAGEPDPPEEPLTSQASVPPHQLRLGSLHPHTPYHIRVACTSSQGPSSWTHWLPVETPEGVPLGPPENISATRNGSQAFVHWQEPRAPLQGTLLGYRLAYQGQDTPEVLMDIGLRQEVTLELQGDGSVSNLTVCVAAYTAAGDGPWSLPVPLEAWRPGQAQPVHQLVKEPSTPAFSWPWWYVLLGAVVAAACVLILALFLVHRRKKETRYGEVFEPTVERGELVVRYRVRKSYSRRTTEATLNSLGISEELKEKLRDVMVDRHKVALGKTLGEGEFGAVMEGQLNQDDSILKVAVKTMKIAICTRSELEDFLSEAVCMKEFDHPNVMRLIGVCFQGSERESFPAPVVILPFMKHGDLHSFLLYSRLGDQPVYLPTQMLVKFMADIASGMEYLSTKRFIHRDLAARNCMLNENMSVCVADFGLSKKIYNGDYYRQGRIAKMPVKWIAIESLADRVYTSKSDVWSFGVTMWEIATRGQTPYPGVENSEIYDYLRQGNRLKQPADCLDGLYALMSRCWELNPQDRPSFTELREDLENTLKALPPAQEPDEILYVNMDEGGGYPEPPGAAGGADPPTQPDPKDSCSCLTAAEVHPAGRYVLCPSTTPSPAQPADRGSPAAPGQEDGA
Experimental: (§3) FACS binding assay. Adherent cells were dissociated with non-enzymatic Sigma Cell Dissociation Solution (Cat. No. C5789). Cells suspensions were added to polypropylene, V-bottom 96-well plates and incubated for 2 hours on ice with primary antibodies at concentrations ranging from 100 nM to 0.001 nM or at a single dose of 100 nM (for the non-specific control). After incubation and washes, cells were incubated with fluorescently labeled secondary antibody (Alexa Fluor® 488 anti-human IgG from Jackson Cat. No 709-546-098) for 1 hour on ice, then washed. Cell viability was determined using Fixable viability dye 450 (20 min on ice). Stained cells were fixed in 1% formaldehyde at 4° C. and stored at 4° C. until acquisition which was performed the next day.
(§4) Binding of recombinant chimeric Abs to three cell lines was assessed by FACS as described above. The apparent Bmax and Kd determination is shown below in Table 14.

[6] = molecular target: T3, recombinant human AXL extracellular …; test: SPR, steady-state analysis (format not stated)
Experimental: For VH Hs and VHH-Fcs, binding to human and cynomolgus AXL ECD was assessed using either a Biacore T200 instrument or a Biacore 3000 instrument. Either human AXL ECD or anti-human Fc antibody was immobilized on a research-grade CM5 series S sensor chip (T200, rhAXL ECD) or a C1 sensor chip (3000, anti-human Fc) using amine coupling in acetate buffer. VHH-Fcs were captured on anti-human Fc surfaces. Either monomeric VHHs (for rhAXL ECD surfaces) or human and cyno AXL ECD (for VHH-Fc surfaces) were flowed over the surfaces at different concentration ranges. Running buffers were HBS-EP (3000) and HBS-EP+(T200). Flow rates were 10-40 ul/min. All binding studies were performed at 25° C. Surfaces were regenerated using 10 mM glycine, pH 1.5.

[7] = molecular target: T2, recombinant cynomolgus AXL …; test: SPR Biacore T200, mAb captured on anti-Fc, AXL ECD flowed, steady-state analysis
Experimental: as §2

[8] = molecular target: T4, human AXL expressed on the cell surface …; test: FACS on NCI-H292 cells, apparent Kd
Experimental: as §3, §4

[9] = molecular target: T4, human AXL expressed on the cell surface …; test: FACS on SKOV3 cells, apparent Kd
Experimental: as §3, §4

[10] = molecular target: T3, recombinant human AXL extracellular …; test: SPR Biacore T200, mAb captured on anti-Fc, AXL ECD flowed (no footnote in the cell)
Experimental: as §2

B1: hFC-F111-5E9 (antibody, human IgG1, kappa, V domains shown)
VH: QIQLVQSGPELKKPGETVKISCKASGYTFTKYGMNWVKQAPGKGLKWMGWINTYTGEPTYADDFKGRFAFSLETSASTAYLQINNLTTEDMVTYFCAKGGYYSNPIYPMDYWGQGTSVTVSS
VL: DIQMTQTTSSLSASLGDRVTISCRASQDINNYLNWYQQKPDGTVKLLIYYISRLHSGVPSRFSGSGSGTDYSLTISNLELEDVATYFCQQGNTLPFTFGSGTKLEIKR
notes: Chimeric mAb, human IgG1 / human kappa constant regions; also called mAb F111-5E9; hIgG-F111-5E9
binding result [1]: no binding | Kd [2]: 4 nM | koff [2]: 0.0027 s⁻¹ | kon [2]: 690000 M⁻¹ s⁻¹ | Kd [3]: 2 nM | koff [3]: 0.0018 s⁻¹ | kon [3]: 780000 M⁻¹ s⁻¹ | EC50 [4]: 2 nM | Kd [5]: 0.366 nM

B2: NRC-sdAb002 (VHH monomer) (VHH)
VHH: QVQLVDSGGGLVQAGGSLRLSCATSTRTVSSAVMAWFRQAPEKVRDFVGFITNSGNILYDDSVKGRFTISRDNAQNTVYLQMNSLKPEDTAVYYCAAKWSFSSGYGDLRRAAMYDYWGQGTQVTVSS
notes: Llama VHH monomer; not shown: 6xHis and Myc tags
Kd [6]: 96 nM

Next, values leading:

binding result [1]: no binding | Kd [3]: 5 nM | koff [3]: 0.013 s⁻¹ | kon [3]: 2.7e+06 M⁻¹ s⁻¹ | EC50 [4]: 1 nM | Kd [7]: 1840 nM
B3: hFC-F107-8D12 (antibody, human IgG1, kappa, V domains shown)
VH: QVQLQQPGAELVKPGASVQLSCKASGYTFISFWINWVKQRPGQGLEWMGNIFPGSSSTNYNEKFKSKATLTVDKSSSTAYMQLSSLTSEDSAVYFCARDYYGGSPDYWGQGTTLTVSS
VL: DIVMSQSPSSLAVSAGERVTMSCKSSQSLLNTRTRKNYLAWYQQKPGQSPKLLIYWASTRESGVPDRFTGSGSGTDFTLTISSVQAEDLAVYYCKQSYNLWTFGGGTKLEIKR
notes: Chimeric mAb, human IgG1 / human kappa constant regions; also called mAb F107-8D12; chimeric F107-8D12

binding result [1]: no binding | Kd [3]: 1 nM | Kd [8]: 0.0509 nM | EC50 [4]: 6 nM | Kd [5]: 0.17 nM | Kd [9]: 0.07 nM | koff [10]: 0.0015 s⁻¹ | kon [10]: 1.4e+06 M⁻¹ s⁻¹ | Kd [7]: 925 nM
B4: hFC-F107-7H5 (antibody, human IgG1, kappa, V domains shown)
VH: QVQLQQPGAELVKPGASVKLSCKASGYTFTSYWINWVKQRPGQGLEWIGNIYPDSSSTNYNEKFKSKATLTVDKSSTTAYIQFSSLTSEDSAVYYCTRDTYGGSPDYWGQGTTLTVSS
VL: B3 VL with R18K, T32S, N37I, E61Q
notes: Chimeric mAb, mouse VH/VL on human IgG1 heavy and human kappa light constant regions, made in CHO cells; also called mAb F107-7H5; hIgG-F107-7H5
